# Data taken from patent publication US11491212.
# Target: Factor X, P00742
# Sequence (P00742 whole entry, looked up): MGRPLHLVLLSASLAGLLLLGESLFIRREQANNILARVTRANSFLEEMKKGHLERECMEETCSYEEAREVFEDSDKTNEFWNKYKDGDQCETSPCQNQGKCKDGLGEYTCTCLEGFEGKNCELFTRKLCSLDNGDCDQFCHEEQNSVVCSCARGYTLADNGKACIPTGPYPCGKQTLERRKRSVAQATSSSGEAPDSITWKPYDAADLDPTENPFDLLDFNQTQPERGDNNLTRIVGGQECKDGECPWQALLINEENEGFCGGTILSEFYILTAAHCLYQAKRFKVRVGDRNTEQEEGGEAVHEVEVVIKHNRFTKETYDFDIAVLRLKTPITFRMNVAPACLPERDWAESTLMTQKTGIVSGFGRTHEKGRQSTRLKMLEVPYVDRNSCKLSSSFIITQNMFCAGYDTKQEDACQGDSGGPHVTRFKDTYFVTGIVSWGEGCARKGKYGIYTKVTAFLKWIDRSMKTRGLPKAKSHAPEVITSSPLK
Protein,KM,kcat/KM,% of WT kcat/KM
FIXa-Y155F/K247N/N249S/R318Y/R338E/T343R/E410N (protein) chain 1: not shown chain 2: not shown,0.0177 µM,–,–
FIXa-Y155F/K247N/N249S/R338E/T343R (protein) chain 1: not shown chain 2: not shown,0.0153 µM,–,–
FIXa-R318Y/R338E/T343R/R403E/E410S (protein) chain 1: not shown chain 2: not shown,0.019 µM,4.4e+08 M⁻¹ s⁻¹,–
FIXa-K247N/N249S/R318Y/R338E/T343R/R403E (protein) chain 1: not shown chain 2: not shown,0.0284 µM,4.1e+08 M⁻¹ s⁻¹,–
FIXa-Y155F/K247N/N249S/R338E/R403E (protein) chain 1: not shown chain 2: not shown,0.0409 µM,–,–
FIXa-Y155F/K247N/N249S/R318Y/R338E/T343R/R403E (protein) chain 1: not shown chain 2: not shown,0.0365 µM,2.9e+08 M⁻¹ s⁻¹,–
FIXa-Y155F/K247N/N249S/R318Y/R338E (protein) chain 1: not shown chain 2: not shown,0.0263 µM,2.9e+08 M⁻¹ s⁻¹,632%
FIXa-Y155F/K247N/N249S/R318Y/E410N (protein) chain 1: not shown chain 2: not shown,0.0488 µM,7.2e+07 M⁻¹ s⁻¹,155%
FIXa-Y155F/K247N/N249S/R318Y/R403E (protein) chain 1: not shown chain 2: not shown,0.109 µM,1.6e+07 M⁻¹ s⁻¹,34%
FIXa K228N/R338E/R403E (mature FIX numbering) (protein) chain 1: not shown chain 2: not shown,–,–,108%
FIXa-Y155F/K247N/N249S/T343R/R403E (protein) chain 1: not shown chain 2: not shown,0.0596 µM,8.5e+07 M⁻¹ s⁻¹,–
FIXa-K247N/N249S/R338E/T343R/R403E/E410N (protein) chain 1: not shown chain 2: not shown,0.0251 µM,4.3e+08 M⁻¹ s⁻¹,930%
FIXa-Y155F/K247N/N249S/R338E/T343R/R403E/E410N (protein) chain 1: not shown chain 2: not shown,0.0264 µM,3.7e+08 M⁻¹ s⁻¹,–
FIXa-Y155F/K247N/N249S/R318Y/T343R (protein) chain 1: not shown chain 2: not shown,0.0421 µM,2.5e+08 M⁻¹ s⁻¹,549%
